Molecular target: biotin-tagged amyloid-beta 42-amino acid (Aβ42) peptide, oligomer preparation
Experiment: conclusion from the cell binding studies on transfected COS-7 cells

B1: full-length mouse PrP, cellular prion protein PrP^c (receptor)
chain: not shown
B1: binds.
